The target of experiment [1] is T1, CD40 on HEK293-CD40 cells.
T1 construct: whole, on cells
The experiment in a line: binding to HEK293-CD40 cells.

In experiment [2] the target is T2, human CD40 (hCD40) (human, UniProt P25942 21-193). The experiment in a line: ELISA blocking of hCD40/hCD40L binding. For orientation: ELISA stands for enzyme-linked immunosorbent assay.
In experiment [3] the target is T2, human CD40 (hCD40). The experiment in a line: ELISA blocking of hCD40/hCD40L binding. This is another data set of the same source.
Experiment [4] has as its target T1, CD40 on HEK293-CD40 cells. The experiment in a line: binding to HEK293-CD40 cells. This is another data set of the same source.

Read-outs that look alike come from different tables or passages of the source.

T2 sequence (P25942 21-193 limits assumed): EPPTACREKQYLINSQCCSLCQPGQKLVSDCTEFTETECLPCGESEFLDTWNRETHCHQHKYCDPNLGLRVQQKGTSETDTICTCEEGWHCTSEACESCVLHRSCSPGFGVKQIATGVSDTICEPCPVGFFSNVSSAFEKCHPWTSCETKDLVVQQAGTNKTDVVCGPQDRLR
T1 sequence (P25942 21-277): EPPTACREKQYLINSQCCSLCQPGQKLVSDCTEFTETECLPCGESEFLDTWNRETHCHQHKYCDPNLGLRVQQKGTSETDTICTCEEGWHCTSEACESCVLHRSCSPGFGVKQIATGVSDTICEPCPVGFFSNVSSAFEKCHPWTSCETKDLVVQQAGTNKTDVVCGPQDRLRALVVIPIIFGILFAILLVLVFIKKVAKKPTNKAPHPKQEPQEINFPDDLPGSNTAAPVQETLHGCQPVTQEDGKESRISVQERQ

B1: human-murine chimeric antibody 9E5-C (antibody, IgG1, V domains shown)
VH: QVQLQQPGADLVKPGASVKMSCKASGYILTTYWITWVKQRPGQGLEWIGDIHPGSGSTKYNEKFKSKATLTVDTSSSTAYMQLTRLSSEDSAVYYCARRDYWGQGTTLTVSS
VL: DVLMTQSPLSLPVSLGDQASISCRSSQNIVNSQGNTYLEWYLQKPGESPKLLIYKVTNRFSGVPDRFSGSGSGTDFTLKISRVEAEDLGVYYCFQASLVPWTFGGGTKLEIK
notes: also called 9E5 chimeric antibody
B1 returned an EC50 in experiment [1] of 0.0333 µg/mL. The IC50 with human CD40 (hCD40) [2] was 0.122 µg/mL.

B2: humanized antibody hu9E5 (H1c heavy chain and L1a light chain) (antibody, human IgG1, kappa, V domains shown)
VH: QVQLVQSGAEVKKPGASVKVSCKASGYILTTYWITWVRQAPGQGLEWMGDIHPGSGSTKYNEKFKSRVTLTVDTSISTAYMELSRLRSEDTAVYYCARRDYWGQGTTVTVSS
VL: DIVMTQSPLSLPVTPGEPASISCRSSQNIVNSQGNTYLEWYLQKPGQSPQLLIYKVTNRFSGVPDRFSGSGSGTDFTLKISRVEAEDVGVYYCFQASLVPWTFGGGTKVEIKR
notes: also called Hu9E5-25
As for B2, the concentration for half-maximal inhibition (IC50) with human CD40 (hCD40) [3] is 0.308 µg/mL. The molecule also displayed an EC50 in experiment [4] of 0.14 µg/mL.

By EC50 is commonly meant the concentration giving half of the maximal effect. For orientation: IC50 means the point on the concentration scale where inhibition reaches its midpoint. Low readings indicate inhibition by little substance, high ones a need for much substance.

The values are drawn from patent US20240254248A1 (JIANGSU HENGRUI MEDICINE, published 2024).
